Experiments:
[1] = molecular target: SARS-CoV-2 nucleocapsid protein (SARS-CoV-2, UniProt P0DTC9 1-419); assay: SPR; settings: protein: commercial
[2] = molecular target: SARS-CoV-2 spike protein S1 region (SARS-CoV-2, UniProt P0DTC2 13-685); assay: SPR; settings: protein: commercial

Binder | Kd [1] | Kd [2]
NBA (ssDNA) DNA: GCTGGATGTCGCTTACGACAATATTCCTTAGGGGCACCGCTACATTGACACATCCAGC | 0.73 nM | –
SBA (ssDNA) DNA: CACGCATAACGTCTTGCGGGGCGGCGGGTTGAGAGGATGTCGGGTGGTTATGCGTG | – | 9.86 nM
